From US20150272076

Legend:
Assay in all cases: cell_activity
[1] = test system: FucT2_T01 TALEN right monomer (synthetic (TAL effector-FokI-type nuclease)?); conditions: pair activity on full site SEQ 67, yeast 37C; 0.8 at 30C
[2] = test system: FucT1_T04/FucT2_T04 TALEN left monomer (synthetic (TAL effector-FokI-type nuclease)?); conditions: pair activity on SEQ 70 and SEQ 71, yeast 37C; 0.5 at 30C
[3] = test system: FucT2_T01 TALEN left monomer (synthetic (TAL effector-FokI-type nuclease)?); conditions: pair activity on full site SEQ 67, yeast 37C; 0.8 at 30C
[4] = test system: FucT1_T04/FucT2_T04 TALEN right monomer (synthetic (TAL effector-FokI-type nuclease)?); conditions: pair activity on SEQ 70 and SEQ 71, yeast 37C; 0.5 at 30C
[5] = test system: FucT1_T02 TALEN left monomer (synthetic (TAL effector-FokI-type nuclease)?)
[6] = test system: FucT2_T02 TALEN left monomer (synthetic (TAL effector-FokI-type nuclease)?)
[7] = test system: FucT1_T02/FucT2_T02 TALEN right monomer (synthetic (TAL effector-FokI-type nuclease)?); conditions: pair activity with either left monomer (SEQ 68 or 69), yeast 37C; 0.7 at 30C
[8] = test system: XylT_T04 TALEN left monomer (synthetic (TAL effector-FokI-type nuclease)?); conditions: pair activity on full site SEQ 65, yeast 37C; 0.9 at 30C; protoplast NHEJ 73.8% XylT1, 63.9% XylT2 (Table 3)
[9] = test system: XylT_T03 TALEN left monomer (synthetic (TAL effector-FokI-type nuclease)?); conditions: pair activity on full site SEQ 64, yeast 37C; 0.7 at 30C; protoplast NHEJ 34.4% XylT1, 28.2% XylT2 (Table 3)
[10] = test system: FucT1_T01 TALEN left monomer (synthetic (TAL effector-FokI-type nuclease)?); conditions: pair activity on full site SEQ 66, yeast 37C; 0.6 at 30C
[11] = test system: FucT1_T01 TALEN right monomer (synthetic (TAL effector-FokI-type nuclease)?); conditions: pair activity on full site SEQ 66, yeast 37C; 0.6 at 30C
[12] = test system: XylT_T03 TALEN right monomer (synthetic (TAL effector-FokI-type nuclease)?); conditions: pair activity on full site SEQ 64, yeast 37C; 0.7 at 30C; protoplast NHEJ 34.4% XylT1, 28.2% XylT2 (Table 3)

GATAAACAATGGCGCAA (double strand) [FucT2_T01 target 2 (SEQ 56, printed as top strand)]
activity (relative to I-SceI) [1]: 0.9

TTGCCTCTGTTCGTTGC (double strand) [FucT_T04 target 1 (SEQ 62)]
activity (relative to I-SceI) [2]: 0.6

TGAGATCGTCGTCAAAT (double strand) [FucT2_T01 target 1 (SEQ 55)]
activity (relative to I-SceI) [3]: 0.9

TTTCTGGTTCGACTCGA (double strand) [FucT_T04 target 2 (SEQ 63, printed as top strand)]
activity (relative to I-SceI) [4]: 0.6

TTCAAACGCACCCGATA (double strand) [FucT2_T02 target 1 (SEQ 59)]
activity ([5]; FucT1_T02 pair on endogenous FucT2 (1-bp mismatch in left site), N. benthamiana protoplasts, control 0.14%): 24.7 % NHEJ
activity (relative to I-SceI) ([6]; pair activity on full site SEQ 69, yeast 37C, 0.7 at 30C, protoplast NHEJ 45.0% FucT2 (Table 3)): 0.9

CTCTGTTCGTTGCCCTA (double strand) [FucT_T02 target 2 (SEQ 58, printed as top strand)]
activity (relative to I-SceI) [7]: 0.9

TCTCTTCGCTCTCAACT (double strand) [XylT_T04 target 1 (SEQ 51)]
activity (relative to I-SceI) [8]: 0.9

TTCTTGTTTCTCTCTTC (double strand) [XylT_T03 target 1 (SEQ 49)]
activity (relative to I-SceI) [9]: 0.9

TGAGATCGGCGTCAAAT (double strand) [FucT1_T01 target 1 (SEQ 53)]
activity (relative to I-SceI) [10]: 0.8

AATAAGCAATGGCGCAA (double strand) [FucT1_T01 target 2 (SEQ 54, printed as top strand)]
activity (relative to I-SceI) [11]: 0.8

ATCACTCTCTATCTCTA (double strand) [XylT_T03 target 2 (SEQ 50, printed as top strand)]
activity (relative to I-SceI) [12]: 0.9

TTCAAACGCACCCAATA (double strand) [FucT1_T02 target 1 (SEQ 57)]
activity (relative to I-SceI) ([5]; pair activity on full site SEQ 68, yeast 37C, 0.7 at 30C, protoplast NHEJ 39.2% FucT1 (Table 3)): 0.9
activity ([6]; FucT2_T02 pair on endogenous FucT1 (1-bp mismatch in left site), N. benthamiana protoplasts, control 0.79%): 46.5 % NHEJ
